Experimental data published in US20160031986A1.

Legend:
[1] = molecular target: cynomolgus monkey DLL4 extracellular domain (cynomolgus monkey); experiment: binding ELISA
[2] = molecular target: cynomolgus monkey DLL4 extracellular domain (cynomolgus monkey); experiment: Biacore SPR; head says nM, kd/ka gives M
[3] = molecular target: cynomolgus monkey DLL4 extracellular domain (cynomolgus monkey); experiment: Biacore SPR

| Binder | EC50 [1] | Kd [2] | koff [3] | kon [3] |
| --- | --- | --- | --- | --- |
| 1A11 chimeric antibody (antibody, V domains shown) VH: EVQLVESGGGLVQPGRSMKLSCAASGFTFRNFPMAWVRQAPTRGLEWVATISSSDGTTYYRDSVKGRFTISRDNAKSTLYLQVNSLRSEDTATYYCSRGYYNSPFAYWGQGTLVTVSS VL: DIQMTQSPASLSASLGETVTIECRASEDIYSNLAWYQQKPGNSPQLLIFDTNNLADGVPSRFSGSGSGTQSSLKINSLQSEDVASYFCQQYNNYPPTFGGGTKLELKR | 0.33 nM | – | – | – |
| h1A11.4 (antibody, V domains shown) VH: EVQLVESGGGLVQPGGSLRLSCAASGFTFSNFPMAWVRQAPGKGLEWVATISSSDGTTYYRDSVKGRFTISRDNAKNSLYLQMNSLRAEDTAVYYCARGYYNSPFAYWGQGTLVTVSS VL: EIVMTQSPATLSVSPGERATLSCRASEDIYSNLAWYQQKPGQSPRLLIFDTNNLADGVPARFSGSGSGTESTLTISSLQSEDFAVYFCQQYNNYPPTFGQGTKLEIKR | 0.17 nM | – | – | – |
| h1A11.8 (antibody, V domains shown) VH: EVQLVESGGGLVQPGGSLRLSCAASGFTFSNFPMAWVRQAPGKGLEWVATISSSDGTTYYRDSVKGRFTISRDNAKSSLYLQMNSLRAEDTAVYYCSRGYYNSPFAYWGQGTLVTVSS VL: EIVMTQSPATLSVSPGERATLSCRASEDIYSNLAWYQQKPGQSPRLLIFDTNNLADGVPARFSGSGSGTESTLTISSLQSEDFAVYFCQQYNNYPPTFGQGTKLEIKR | 0.17 nM | – | – | – |
| h1A11.5 (antibody, V domains shown) VH: EVQLVESGGGLVQPGGSLRLSCAASGFTFSNFPMAWVRQAPGKGLEWVATISSSDGTTYYRDSVKGRFTISRDNAKSSLYLQMNSLRAEDTAVYYCSRGYYNSPFAYWGQGTLVTVSS VL: DIQMTQSPSSLSASVGDRVTITCRASEDIYSNLAWYQQKPGKAPKLLIYDTNNLADGVPSRFSGSGSGTDFTLTISSLQPEDFATYYCQQYNNYPPTFGQGTKLEIKR | 0.16 nM | – | – | – |
| h1A11.7 (antibody, V domains shown) VH: EVQLVESGGGLVQPGGSLRLSCAASGFTFSNFPMAWVRQAPGKGLEWVATISSSDGTTYYRDSVKGRFTISRDNAKSSLYLQMNSLRAEDTAVYYCSRGYYNSPFAYWGQGTLVTVSS VL: DIQMTQSPSSLSASVGDRVTITCRASEDIYSNLAWYQQKPGKAPKLLIFDTNNLADGVPSRFSGSGSGTDFTLTISSLQPEDFATYYCQQYNNYPPTFGQGTKLEIKR | 0.14 nM | – | – | – |
| h1A11.10 (antibody, V domains shown) VH: EVQLVESGGGLVQPGGSLRLSCAASGFTFSNFPMAWVRQAPGKGLEWVATISSSDGTTYYRDSVKGRFTISRDNAKNSLYLQMNSLRAEDTAVYYCSRGYYNSPFAYWGQGTLVTVSS VL: DIQMTQSPSSLSASVGDRVTITCRASEDIYSNLAWYQQKPGKSPKLLIFDTNNLADGVPSRFSGSGSGTDSTLTISSLQPEDFATYFCQQYNNYPPTFGQGTKLEIKR | 0.15 nM | – | – | – |
| h1A11.6 (antibody, V domains shown) VH: EVQLVESGGGLVQPGGSLRLSCAASGFTFSNFPMAWVRQAPGKGLEWVATISSSDGTTYYRDSVKGRFTISRDNAKSSLYLQMNSLRAEDTAVYYCSRGYYNSPFAYWGQGTLVTVSS VL: DIQMTQSPSSLSASVGDRVTITCRASEDIYSNLAWYQQKPGKSPKLLIFDTNNLADGVPSRFSGSGSGTDSTLTISSLQPEDFATYFCQQYNNYPPTFGQGTKLEIKR | 0.13 nM | – | – | – |
| h1A11.9 (antibody, V domains shown) VH: EVQLVESGGGLVQPGGSLRLSCAASGFTFSNFPMAWVRQAPGKGLEWVATISSSDGTTYYRDSVKGRFTISRDNAKNSLYLQMNSLRAEDTAVYYCSRGYYNSPFAYWGQGTLVTVSS VL: DIQMTQSPSSLSASVGDRVTITCRASEDIYSNLAWYQQKPGKAPKLLIYDTNNLADGVPSRFSGSGSGTDFTLTISSLQPEDFATYYCQQYNNYPPTFGQGTKLEIKR | 0.15 nM | – | – | – |
| h1A11.11 (antibody, V domains shown) VH: EVQLVESGGGLVQPGGSLRLSCAASGFTFSNFPMAWVRQAPGKGLEWVATISSSDGTTYYRDSVKGRFTISRDNAKNSLYLQMNSLRAEDTAVYYCSRGYYNSPFAYWGQGTLVTVSS VL: DIQMTQSPSSLSASVGDRVTITCRASEDIYSNLAWYQQKPGKAPKLLIFDTNNLADGVPSRFSGSGSGTDFTLTISSLQPEDFATYYCQQYNNYPPTFGQGTKLEIKR | 0.15 nM | – | – | – |

Other lines, results leading:

| EC50 [1] | Kd [2] | koff [3] | kon [3] | Binder |
| --- | --- | --- | --- | --- |
| 0.13 nM | – | – | – | h1A11.15 (antibody, V domains shown) VH: EVQLVESGGGLVQPGGSLRLSCAASGFTFSNFPMAWVRQAPGKGLEWVATISSSDGTTYYRDSVKGRFTISRDNSKSTLYLQMNSLRAEDTAVYYCSRGYYNSPFAYWGQGTLVTVSS VL: DIQMTQSPSSLSASVGDRVTITCRASEDIYSNLAWYQQKPGKAPKLLIFDTNNLADGVPSRFSGSGSGTDFTLTISSLQPEDFATYYCQQYNNYPPTFGQGTKLEIKR |
| – | 0.17 nM | 2e-05 s⁻¹ | 118000 M⁻¹ s⁻¹ | h1A11.F5 (antibody, V domains shown) VH: EVQLVESGGGLVQPGGSLRLSCAASGFTFRHFPMAWVRQAPGKGLEWVATISSSDAWPSYRDSVKGRFTISRDNAKNSLYLQMNSLRAEDTAVYYCARGYYNSPFAYWGQGTLVTVSS VL: DIQMTQSPSSLSASVGDRVTITCRASQEIYRNLAWYQQKPGKSPKLLIFDTSVLADGVPSRFSGSGSGTDSTLTISSLQPEDFATYYCQQYTYYPPTFGQGTKLEIK |
| – | 0.18 nM | 3.12e-05 s⁻¹ | 171000 M⁻¹ s⁻¹ | h1A11.C6 (antibody, V domains shown) VH: EVQLVESGGGLVQPGGSLRLSCAASGFTFRNFPMAWVRQAPGKGLEWVATISSSDGWPTYRDSVKGRFTISRDNAKSSLYLQMNSLRAEDTAVYYCSRGYYNSPFAYWGQGTLVTVSS VL: DIQMTQSPSSLSASVGDRVTITCRASEDIYSNLAWYQQKPGKAPKLLIYDTNNLADGVPSRFSGSGSGTDFTLTISSLQPEDFATYYCQQYNNYPPTFGQGTKLEIK |
| 0.14 nM | – | – | – | h1A11.14 (antibody, V domains shown) VH: EVQLVESGGGLVQPGGSLRLSCAASGFTFSNFPMAWVRQAPGKGLEWVATISSSDGTTYYRDSVKGRFTISRDNSKSTLYLQMNSLRAEDTAVYYCSRGYYNSPFAYWGQGTLVTVSS VL: DIQMTQSPSSLSASVGDRVTITCRASEDIYSNLAWYQQKPGKSPKLLIFDTNNLADGVPSRFSGSGSGTDSTLTISSLQPEDFATYFCQQYNNYPPTFGQGTKLEIKR |
| – | 0.2 nM | 3.35e-05 s⁻¹ | 170000 M⁻¹ s⁻¹ | h1A11.A11 (antibody, V domains shown) VH: EVQLVESGGGLVQPGGSLRLSCAASGFTFRHFPMAWVRQAPGKGLEWVATISSSDDWPNYRDSVKGRFTISRDNAKSSLYLQMNSLRAEDTAVYYCSRGYYNSPFAYWGQGTLVTVSS VL: DIQMTQSPSSLSASVGDRVTITCRASEDIYSNLAWYQQKPGKAPKLLIYDTNNLADGVPSRFSGSGSGTDFTLTISSLQPEDFATYYCQQYNNYPPTFGQGTKLEIK |
| – | 0.12 nM | 2.1e-05 s⁻¹ | 171000 M⁻¹ s⁻¹ | h1A11.A6 (antibody, V domains shown) VH: EVQLVESGGGLVQPGGSLRLSCAASGFTFRHFPMAWVRQAPGKGLEWVATISSSDAWPSYRDSVKGRFTISRDNAKNSLYLQMNSLRAEDTAVYYCSRGYYNSPFAYWGQGTLVTVSS VL: DIQMTQSPSSLSASVGDRVTITCRASEDIYSNLAWYQQKPGKAPKLLIYDTNNLADGVPSRFSGSGSGTDFTLTISSLQPEDFATYYCQQYNNYPPTFGQGTKLEIK |
| – | 0.15 nM | 2.4e-05 s⁻¹ | 160000 M⁻¹ s⁻¹ | h1A11.A8 (antibody, V domains shown) VH: EVQLVESGGGLVQPGGSLRLSCAASGFTFGNFPMSWVRQAPGKGLEWVASISSSDSWATIGDSVKGRFTISRDNAKNSLYLQMNSLRAEDTAVYYCSRGYYNSPFAYWGQGTLVTVSS VL: DIQMTQSPSSLSASVGDRVTITCRASEDIYSNLAWYQQKPGKAPKLLIYDTNNLADGVPSRFSGSGSGTDFTLTISSLQPEDFATYYCQQYNNYPPTFGQGTKLEIK |
| 0.12 nM | – | – | – | h1A11.16 (antibody, V domains shown) VH: EVQLVESGGGLVQPGGSLRLSCAASGFTFSNFPMAWVRQAPGKGLEWVATISSSDGTTYYRDSVKGRFTISRDNSKSTLYLQMNSLRAEDTAVYYCSRGYYNSPFAYWGQGTLVTVSS VL: EIVMTQSPATLSVSPGERATLSCRASEDIYSNLAWYQQKPGQSPRLLIFDTNNLADGVPARFSGSGSGTESTLTISSLQSEDFAVYFCQQYNNYPPTFGQGTKLEIKR |
| – | 0.17 nM | 1.73e-05 s⁻¹ | 99000 M⁻¹ s⁻¹ | h1A11.G3 (antibody, V domains shown) VH: EVQLVESGGGLVQPGGSLRLSCAASGFTFRYFPMSWVRQAPGKGLEWVASISGSDGWASYRDSVKGRFTISRDNAKNSLYLQMNSLRAEDTAVYYCARGYYNSPFAYWGQGTLVTVSS VL: DIQMTQSPSSLSASVGDRVTITCRASQEIYRNLAWYQQKPGKSPKLLIFDTSVLADGVPSRFSGSGSGTDSTLTISSLQPEDFATYYCQQYTYYPPTFGQGTKLEIK |
| 0.16 nM | – | – | – | h1A11.13 (antibody, V domains shown) VH: EVQLVESGGGLVQPGGSLRLSCAASGFTFSNFPMAWVRQAPGKGLEWVATISSSDGTTYYRDSVKGRFTISRDNSKSTLYLQMNSLRAEDTAVYYCSRGYYNSPFAYWGQGTLVTVSS VL: DIQMTQSPSSLSASVGDRVTITCRASEDIYSNLAWYQQKPGKAPKLLIYDTNNLADGVPSRFSGSGSGTDFTLTISSLQPEDFATYYCQQYNNYPPTFGQGTKLEIKR |
| 0.16 nM | – | – | – | h1A11.12 (antibody, V domains shown) VH: EVQLVESGGGLVQPGGSLRLSCAASGFTFSNFPMAWVRQAPGKGLEWVATISSSDGTTYYRDSVKGRFTISRDNAKNSLYLQMNSLRAEDTAVYYCSRGYYNSPFAYWGQGTLVTVSS VL: EIVMTQSPATLSVSPGERATLSCRASEDIYSNLAWYQQKPGQSPRLLIFDTNNLADGVPARFSGSGSGTESTLTISSLQSEDFAVYFCQQYNNYPPTFGQGTKLEIKR |
| – | 0.28 nM | 3.84e-05 s⁻¹ | 137000 M⁻¹ s⁻¹ | h1A11.E12 (antibody, V domains shown) VH: EVQLVESGGGLVQPGGSLRLSCAASGFTFRYFPMAWVRQAPGKGLEWVATISGSDEWPNYRDSVKGRFTISRDNAKNSLYLQMNSLRAEDTAVYYCARGYYNSPFAFWGQGTLVTVSS VL: DIQMTQSPSSLSASVGDRVTITCRASQEIYRNLAWYQQKPGKSPKLLIFDTSVLADGVPSRFSGSGSGTDSTLTISSLQPEDFATYYCQQYTYYPPTFGQGTKLEIK |
